Changes are numbered by the printed parent chain. Blank lines part the entries; values can stand above or below the binder they belong to.
Legend:
Test in all cases: ELISA
[1] = target: T1, human EphA6 extracellular region-SEAP-His protein (human, UniProt Q9UF33 23-550)
T1 construct: extracellular domain; also called hEphA6-SEAP-His
T1 sequence (looked up): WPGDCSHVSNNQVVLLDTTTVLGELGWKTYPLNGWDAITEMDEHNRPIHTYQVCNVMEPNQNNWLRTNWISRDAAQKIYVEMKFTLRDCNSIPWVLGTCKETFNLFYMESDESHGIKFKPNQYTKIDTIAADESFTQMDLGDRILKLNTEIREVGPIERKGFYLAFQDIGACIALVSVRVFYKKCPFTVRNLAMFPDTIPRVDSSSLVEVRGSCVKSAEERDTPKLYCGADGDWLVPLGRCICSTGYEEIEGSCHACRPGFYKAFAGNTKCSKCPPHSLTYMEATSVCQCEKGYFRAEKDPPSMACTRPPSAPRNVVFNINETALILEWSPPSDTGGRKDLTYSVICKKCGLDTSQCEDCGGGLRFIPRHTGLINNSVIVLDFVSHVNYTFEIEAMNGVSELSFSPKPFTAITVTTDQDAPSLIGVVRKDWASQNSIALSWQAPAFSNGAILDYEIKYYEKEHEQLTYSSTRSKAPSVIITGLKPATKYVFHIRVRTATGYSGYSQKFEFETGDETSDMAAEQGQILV

[2] = target: T2, human EphB3 extracellular region-SEAP-His protein (human, UniProt P54753 34-559)
T2 construct: extracellular domain; also called hEphB3-SEAP-His
T2 sequence (looked up): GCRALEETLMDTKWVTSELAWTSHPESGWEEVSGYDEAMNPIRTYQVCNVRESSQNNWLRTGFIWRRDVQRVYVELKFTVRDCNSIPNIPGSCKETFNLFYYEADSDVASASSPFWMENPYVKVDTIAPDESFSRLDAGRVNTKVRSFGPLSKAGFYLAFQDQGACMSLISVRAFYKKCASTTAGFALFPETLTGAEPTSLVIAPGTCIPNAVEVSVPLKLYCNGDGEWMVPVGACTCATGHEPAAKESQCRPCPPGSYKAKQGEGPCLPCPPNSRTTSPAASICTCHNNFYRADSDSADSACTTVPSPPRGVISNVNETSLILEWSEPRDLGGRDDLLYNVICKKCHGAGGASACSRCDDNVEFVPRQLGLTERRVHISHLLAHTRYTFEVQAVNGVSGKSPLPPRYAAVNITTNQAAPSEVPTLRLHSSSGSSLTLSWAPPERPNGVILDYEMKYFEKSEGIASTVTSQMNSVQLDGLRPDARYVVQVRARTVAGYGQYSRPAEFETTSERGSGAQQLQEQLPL

[3] = target: T3, human EphA5 extracellular region-SEAP-His protein (human, UniProt P54756 25-573)
T3 construct: extracellular domain; also called hEphA5-SEAP-His

[4] = target: T4, human EphB6 extracellular region-SEAP-His protein (human, UniProt O15197 32-594)
T4 construct: extracellular domain; also called hEphB6-SEAP-His
T4 sequence (looked up): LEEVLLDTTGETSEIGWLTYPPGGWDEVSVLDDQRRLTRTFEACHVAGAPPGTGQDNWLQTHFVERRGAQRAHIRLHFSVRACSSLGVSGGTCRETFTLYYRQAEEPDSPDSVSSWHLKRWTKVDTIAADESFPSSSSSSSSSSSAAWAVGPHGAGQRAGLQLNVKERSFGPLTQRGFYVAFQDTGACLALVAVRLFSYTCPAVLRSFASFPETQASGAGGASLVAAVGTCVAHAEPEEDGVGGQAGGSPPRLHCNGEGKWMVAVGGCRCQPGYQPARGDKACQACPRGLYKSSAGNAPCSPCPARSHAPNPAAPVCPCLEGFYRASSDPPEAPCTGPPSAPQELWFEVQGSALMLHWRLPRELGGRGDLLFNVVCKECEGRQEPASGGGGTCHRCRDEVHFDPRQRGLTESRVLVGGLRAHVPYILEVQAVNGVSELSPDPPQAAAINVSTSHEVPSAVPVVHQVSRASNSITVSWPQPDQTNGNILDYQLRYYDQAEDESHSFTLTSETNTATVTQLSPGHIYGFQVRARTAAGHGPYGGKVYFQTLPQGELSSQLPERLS

[5] = target: T5, human EphB2 extracellular region-SEAP-His protein (human, UniProt P29323 19-543)
T5 construct: extracellular domain; also called hEphB2-SEAP-His
T5 sequence (looked up): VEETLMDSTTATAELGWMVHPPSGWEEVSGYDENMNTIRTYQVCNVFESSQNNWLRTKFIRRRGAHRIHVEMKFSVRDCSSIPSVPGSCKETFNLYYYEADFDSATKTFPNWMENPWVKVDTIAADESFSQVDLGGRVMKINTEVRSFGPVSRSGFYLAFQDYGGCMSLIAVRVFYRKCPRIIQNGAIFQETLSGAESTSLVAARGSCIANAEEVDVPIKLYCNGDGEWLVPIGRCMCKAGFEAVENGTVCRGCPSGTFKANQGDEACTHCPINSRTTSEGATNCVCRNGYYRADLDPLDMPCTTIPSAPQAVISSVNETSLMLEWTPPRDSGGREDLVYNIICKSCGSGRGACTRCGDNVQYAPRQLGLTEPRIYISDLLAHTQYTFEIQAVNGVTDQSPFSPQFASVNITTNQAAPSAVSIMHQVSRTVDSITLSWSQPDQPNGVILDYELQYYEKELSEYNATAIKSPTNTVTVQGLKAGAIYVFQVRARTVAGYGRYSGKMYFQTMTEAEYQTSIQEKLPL

T3 sequence (P54756 25-573): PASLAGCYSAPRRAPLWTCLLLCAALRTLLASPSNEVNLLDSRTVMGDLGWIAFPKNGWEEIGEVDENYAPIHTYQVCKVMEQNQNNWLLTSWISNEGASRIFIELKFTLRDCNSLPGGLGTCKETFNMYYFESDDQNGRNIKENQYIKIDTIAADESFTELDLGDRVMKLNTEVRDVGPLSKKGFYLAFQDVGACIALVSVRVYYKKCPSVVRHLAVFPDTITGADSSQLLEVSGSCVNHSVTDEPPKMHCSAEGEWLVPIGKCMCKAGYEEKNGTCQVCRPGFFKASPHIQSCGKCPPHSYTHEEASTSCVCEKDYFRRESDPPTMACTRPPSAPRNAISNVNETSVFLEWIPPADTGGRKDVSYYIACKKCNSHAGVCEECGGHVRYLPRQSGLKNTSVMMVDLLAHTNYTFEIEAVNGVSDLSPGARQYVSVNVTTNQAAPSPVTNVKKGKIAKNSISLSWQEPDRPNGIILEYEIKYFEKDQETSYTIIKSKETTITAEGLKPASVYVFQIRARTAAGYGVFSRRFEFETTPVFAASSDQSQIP

B1: humanized antibody No. 134 (antibody, human IgG2)
heavy: QVQLVQSGSELKKPGASVKVSCKASGYTFTDYSMHWVRQAPGQGLKWMGWINTETGEPTYAQGFTGRFVFSLDTSVSTAYLQISSLKAEDTAVYYCARIPLYYYGSRYWYFDVWGQGTTVTVSSASTKGPSVFPLAPSSRSTSESTAALGCLVKDYFPEPVTVSWNSGALTSGVHTFPAVLQSSGLYSLSSVVTVPSSNFGTQTYTCNVDHKPSNTKVDKTVERKSCVECPPCPAPPAAAPSVFLFPPKPKDTLMISRTPEVTCVVVDVSHEDPEVQFNWYVDGVEVHNAKTKPREEQFNSTFRVVSVLTVVHQDWLNGKEYKCKVSNKGLPAPIEKTISKTKGQPREPQVYTLPPSREEMTKNQVSLTCLVKGFYPSDIAVEWESNGQPENNYKTTPPMLDSDGSFFLYSKLTVDKSRWQQGNVFSCSVMHEALHNHYTQKSLSLSPG
light: EIVMTQSPATLSVSPGERATLSCRASENIYRNLAWYQQKPGQSPRLLIYAATNLADGIPARFSGSGSGTEYTLTISSLQSEDFAVYYCQHFWGTPWTFGQGTKVEIKRTVAAPSVFIFPPSDEQLKSGTASVVCLLNNFYPREAKVQWKVDNALQSGNSQESVTEQDSKDSTYSLSSTLTLSKADYEKHKVYACEVTHQGLSSPVTKSFNRGEC
notes: human Ig kappa; also called L2-4/HA2
A450 as % of hEphA4-SEAP-His [1]: 9.6%
A450 as % of hEphA4-SEAP-His [2]: 5.2%
A450 as % of hEphA4-SEAP-His [3]: 5.2%
A450 as % of hEphA4-SEAP-His [4]: 5.2%
A450 as % of hEphA4-SEAP-His [5]: 5.1%

B2: humanized antibody No. 94 (antibody, human IgG1, kappa)
heavy: QVQLVQSGSELKKPGASVKVSCKASGYTFTDYSMHWVRQAPGQGLKWMGWINTETGEPTYAQGFTGRFVFSLDTSVSTAYLQISSLKAEDTAVYYCARIPLYYYGSRYWYFDVWGQGTTVTVSSASTKGPSVFPLAPSSKSTSGGTAALGCLVKDYFPEPVTVSWNSGALTSGVHTFPAVLQSSGLYSLSSVVTVPSSSLGTQTYICNVNHKPSNTKVDKRVEPKSCDKTHTCPPCPAPPAAAPSVFLFPPKPKDTLMISRTPEVTCVVVDVSHEDPEVQFNWYVDGVEVHNAKTKPREEQFNSTFRVVSVLTVVHQDWLNGKEYKCKVSNKGLPAPIEKTISKTKGQPREPQVYTLPPSREEMTKNQVSLTCLVKGFYPSDIAVEWESNGQPENNYKTTPPMLDSDGSFFLYSKLTVDKSRWQQGNVFSCSVMHEALHNHYTQKSLSLSPG
light: B1 light
notes: as for B1
A450 as % of hEphA4-SEAP-His [1]: 8.6%
A450 as % of hEphA4-SEAP-His [2]: 6.7%
A450 as % of hEphA4-SEAP-His [3]: 6.5%
A450 as % of hEphA4-SEAP-His [4]: 6.4%
A450 as % of hEphA4-SEAP-His [5]: 7%

B4: humanized antibody No. 96 (antibody, human IgG1, kappa)
heavy: B2 heavy with Q62D, G63D, T65K
light: B1 light
notes: human Ig kappa; also called L2-4/HK2
A450 as % of hEphA4-SEAP-His [1]: 9.8%
A450 as % of hEphA4-SEAP-His [2]: 5.6%
A450 as % of hEphA4-SEAP-His [3]: 6%
A450 as % of hEphA4-SEAP-His [4]: 5.5%
A450 as % of hEphA4-SEAP-His [5]: 5.5%

B7: humanized antibody No. 71 (antibody, human IgG1, kappa)
heavy: B2 heavy with V2I
light: B1 light
notes: human Ig kappa; also called L2-4/HA4
A450 as % of hEphA4-SEAP-His [1]: 9.2%
A450 as % of hEphA4-SEAP-His [2]: 5.5%
A450 as % of hEphA4-SEAP-His [3]: 5.6%
A450 as % of hEphA4-SEAP-His [4]: 5.3%
A450 as % of hEphA4-SEAP-His [5]: 5.5%

B8: humanized antibody No. 73 (antibody, human IgG1, kappa)
heavy: B2 heavy with V2I, Q62D, G63D, T65K
light: B1 light
notes: human Ig kappa; also called L2-4/HK4
A450 as % of hEphA4-SEAP-His [1]: 7.4%
A450 as % of hEphA4-SEAP-His [2]: 5.8%
A450 as % of hEphA4-SEAP-His [3]: 6%
A450 as % of hEphA4-SEAP-His [4]: 5.6%
A450 as % of hEphA4-SEAP-His [5]: 5.6%

B9: humanized antibody No. 95 (antibody, human IgG1, kappa)
heavy: B2 heavy with K46E, Q62D, G63D, T65K
light: B1 light
notes: human Ig kappa; also called L2-4/HK1
A450 as % of hEphA4-SEAP-His [1]: 7%
A450 as % of hEphA4-SEAP-His [2]: 4.6%
A450 as % of hEphA4-SEAP-His [3]: 4.6%
A450 as % of hEphA4-SEAP-His [4]: 4.7%
A450 as % of hEphA4-SEAP-His [5]: 4.7%

B12: humanized antibody No. 93 (antibody, human IgG1, kappa)
heavy: B2 heavy with K46E
light: B1 light
notes: human Ig kappa; also called L2-4/HA1
A450 as % of hEphA4-SEAP-His [1]: 7.1%
A450 as % of hEphA4-SEAP-His [2]: 5.1%
A450 as % of hEphA4-SEAP-His [3]: 4.9%
A450 as % of hEphA4-SEAP-His [4]: 4.9%
A450 as % of hEphA4-SEAP-His [5]: 5%

Results, then the binder that gave them:

A450 as % of hEphA4-SEAP-His [1]: 8.8%
A450 as % of hEphA4-SEAP-His [2]: 4.7%
A450 as % of hEphA4-SEAP-His [3]: 4.7%
A450 as % of hEphA4-SEAP-His [4]: 4.8%
A450 as % of hEphA4-SEAP-His [5]: 4.6%
B3: humanized antibody No. 133 (antibody, human IgG2)
heavy: B1 heavy with K46E
light: B1 light
notes: as for B12

A450 as % of hEphA4-SEAP-His [1]: 7.1%
A450 as % of hEphA4-SEAP-His [2]: 5.7%
A450 as % of hEphA4-SEAP-His [3]: 5.7%
A450 as % of hEphA4-SEAP-His [4]: 5.7%
A450 as % of hEphA4-SEAP-His [5]: 5.6%
B5: humanized antibody No. 137 (antibody, human IgG2)
heavy: B1 heavy with V2I, Q62D, G63D, T65K
light: B1 light
notes: as for B8

A450 as % of hEphA4-SEAP-His [1]: 7.2%
A450 as % of hEphA4-SEAP-His [2]: 5.5%
A450 as % of hEphA4-SEAP-His [3]: 5.2%
A450 as % of hEphA4-SEAP-His [4]: 5.5%
A450 as % of hEphA4-SEAP-His [5]: 5.3%
B6: humanized antibody No. 136 (antibody, human IgG2)
heavy: B1 heavy with Q62D, G63D, T65K
light: B1 light
notes: as for B4

A450 as % of hEphA4-SEAP-His [1]: 7%
A450 as % of hEphA4-SEAP-His [2]: 5%
A450 as % of hEphA4-SEAP-His [3]: 5%
A450 as % of hEphA4-SEAP-His [4]: 5.3%
A450 as % of hEphA4-SEAP-His [5]: 5%
B10: humanized antibody No. 135 (antibody, human IgG2)
heavy: B1 heavy with K46E, Q62D, G63D, T65K
light: B1 light
notes: as for B9

A450 as % of hEphA4-SEAP-His [1]: 9.7%
A450 as % of hEphA4-SEAP-His [2]: 4.7%
A450 as % of hEphA4-SEAP-His [3]: 4.7%
A450 as % of hEphA4-SEAP-His [4]: 4.7%
A450 as % of hEphA4-SEAP-His [5]: 4.7%
B11: humanized antibody No. 132 (antibody, human IgG2)
heavy: B1 heavy with V2I
light: B1 light
notes: as for B7

Source: patent US20190077860A1 (EISAI R AND D MANAGEMENT, published 2019)
